Data reported in publication PMC10397247.

How the values were obtained:
Test in all cases: two-hybrid library CCmax;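 further: natural log of median RNA to DNA barcode read ratio; higher means stronger binding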
4H2600-AA = biological target: T1, 4H2600-AA
T1 chain: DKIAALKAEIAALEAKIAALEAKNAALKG

4H2721-AA = biological target: T2, 4H2721-AA; details: mean of both orientations
T2 chain: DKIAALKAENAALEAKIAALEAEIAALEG

4H2750-AA = biological target: T3, 4H2750-AA; details: mean of both orientations
T3 chain: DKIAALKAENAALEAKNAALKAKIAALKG

4H2898-AA = biological target: T4, 4H2898-AA; details: mean of both orientations
T4 chain: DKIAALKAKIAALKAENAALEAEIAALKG

4H3020-AA = biological target: T5, 4H3020-AA; details: mean of both orientations
T5 chain: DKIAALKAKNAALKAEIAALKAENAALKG

4H3365-AA = biological target: T6, 4H3365-AA; details: mean of both orientations
T6 chain: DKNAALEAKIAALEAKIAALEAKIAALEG

4H355-AA = biological target: T7, 4H355-AA; details: mean of both orientations
T7 chain: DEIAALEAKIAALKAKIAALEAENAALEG

4H3651-AA = biological target: T8, 4H3651-AA; details: mean of both orientations
T8 chain: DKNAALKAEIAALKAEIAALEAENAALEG

4H3705-AA = biological target: T9, 4H3705-AA; details: mean of both orientations
T9 chain: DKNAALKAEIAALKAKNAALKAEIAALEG

4H3782-AA = biological target: T10, 4H3782-AA; details: mean of both orientations
T10 chain: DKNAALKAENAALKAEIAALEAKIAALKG

4H465-AA = biological target: T11, 4H465-AA; details: mean of both orientations
T11 chain: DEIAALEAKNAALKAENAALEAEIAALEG

4H486-AA = biological target: T12, 4H486-AA; details: mean of both orientations
T12 chain: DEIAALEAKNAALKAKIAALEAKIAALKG

4H535-AA = biological target: T13, 4H535-AA; details: mean of both orientations
T13 chain: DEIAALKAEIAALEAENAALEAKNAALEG

4H58-AA = biological target: T14, 4H58-AA; details: mean of both orientations
T14 chain: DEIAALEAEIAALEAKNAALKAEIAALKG

4H895-AA = biological target: T15, 4H895-AA; details: mean of both orientations
T15 chain: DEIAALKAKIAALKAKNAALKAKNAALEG

4H_APH = biological target: T16, 4H_APH
T16 chain: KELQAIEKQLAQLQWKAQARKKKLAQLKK

4H_BCR = biological target: T17, 4H_BCR; details: mean of both orientations
T17 chain: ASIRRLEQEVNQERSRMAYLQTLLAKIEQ

4H_GCN4 = biological target: 4H_GCN4
GCN2_T = biological target: GCN2_T
4H1597-AA = biological target: T18, 4H1597-AA
T18 chain: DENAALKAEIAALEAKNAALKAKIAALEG

4H1626-AA = biological target: T19, 4H1626-AA; details: mean of both orientations
T19 chain: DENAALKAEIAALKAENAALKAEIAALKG

4H171-AA = biological target: T20, 4H171-AA; details: mean of both orientations
T20 chain: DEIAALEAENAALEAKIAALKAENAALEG

4H174-AA = biological target: T21, 4H174-AA; details: mean of both orientations
T21 chain: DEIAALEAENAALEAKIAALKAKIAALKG

4H1842-AA = biological target: T22, 4H1842-AA; details: mean of both orientations
T22 chain: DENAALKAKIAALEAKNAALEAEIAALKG

4H1864-AA = biological target: T23, 4H1864-AA; details: mean of both orientations
T23 chain: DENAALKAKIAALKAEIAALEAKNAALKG

4H1877-AA = biological target: T24, 4H1877-AA; details: mean of both orientations
T24 chain: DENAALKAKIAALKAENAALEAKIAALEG

4H2109-AA = biological target: T25, 4H2109-AA; details: mean of both orientations
T25 chain: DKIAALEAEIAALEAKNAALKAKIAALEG

4H2162-AA = biological target: T26, 4H2162-AA; details: mean of both orientations
T26 chain: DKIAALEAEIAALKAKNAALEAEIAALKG

4H2253-AA = biological target: T27, 4H2253-AA; details: mean of both orientations
T27 chain: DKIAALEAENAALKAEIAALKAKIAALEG

4H2274-AA = biological target: T28, 4H2274-AA; details: mean of both orientations
T28 chain: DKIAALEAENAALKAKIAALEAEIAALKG

4H2330-AA = biological target: T29, 4H2330-AA; details: mean of both orientations
T29 chain: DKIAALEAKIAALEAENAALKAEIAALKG

4H2389-AA = biological target: T30, 4H2389-AA; details: mean of both orientations
T30 chain: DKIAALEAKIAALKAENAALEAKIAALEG

4H2438-AA = biological target: T31, 4H2438-AA; details: mean of both orientations
T31 chain: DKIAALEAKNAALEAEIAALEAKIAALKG

4H2473-AA = biological target: T32, 4H2473-AA; details: mean of both orientations
T32 chain: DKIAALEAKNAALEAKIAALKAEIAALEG

4H2649-AA = biological target: T33, 4H2649-AA; details: mean of both orientations
T33 chain: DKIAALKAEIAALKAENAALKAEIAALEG

4H2698-AA = biological target: T34, 4H2698-AA; details: mean of both orientations
T34 chain: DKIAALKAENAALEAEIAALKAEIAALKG

4H2725-AA = biological target: T35, 4H2725-AA; details: mean of both orientations
T35 chain: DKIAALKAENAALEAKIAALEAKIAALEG

4H2865-AA = biological target: T36, 4H2865-AA; details: mean of both orientations
T36 chain: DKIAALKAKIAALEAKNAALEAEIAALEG

4H3009-AA = biological target: T37, 4H3009-AA; details: mean of both orientations
T37 chain: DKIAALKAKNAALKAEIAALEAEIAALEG

4H3016-AA = biological target: T38, 4H3016-AA; details: mean of both orientations
T38 chain: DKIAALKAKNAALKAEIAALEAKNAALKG

4H310-AA = biological target: T39, 4H310-AA; details: mean of both orientations
T39 chain: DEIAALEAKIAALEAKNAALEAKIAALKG

4H3120-AA = biological target: T40, 4H3120-AA; details: mean of both orientations
T40 chain: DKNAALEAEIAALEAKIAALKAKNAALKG

4H3130-AA = biological target: T41, 4H3130-AA; details: mean of both orientations
T41 chain: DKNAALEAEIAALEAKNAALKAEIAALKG

4H3165-AA = biological target: T42, 4H3165-AA; details: mean of both orientations
T42 chain: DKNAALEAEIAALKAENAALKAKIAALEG

4H3381-AA = biological target: T43, 4H3381-AA
T43 chain: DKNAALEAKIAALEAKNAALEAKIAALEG

4H3395-AA = biological target: T44, 4H3395-AA; details: mean of both orientations
T44 chain: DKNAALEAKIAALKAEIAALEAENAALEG

4H3410-AA = biological target: T45, 4H3410-AA; details: mean of both orientations
T45 chain: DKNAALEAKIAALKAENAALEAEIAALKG

4H3590-AA = biological target: T46, 4H3590-AA; details: mean of both orientations
T46 chain: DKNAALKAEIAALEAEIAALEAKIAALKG

4H3697-AA = biological target: T47, 4H3697-AA; details: mean of both orientations
T47 chain: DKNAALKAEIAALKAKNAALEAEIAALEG

4H3753-AA = biological target: T48, 4H3753-AA; details: mean of both orientations
T48 chain: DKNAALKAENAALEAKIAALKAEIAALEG

4H3865-AA = biological target: T49, 4H3865-AA; details: mean of both orientations
T49 chain: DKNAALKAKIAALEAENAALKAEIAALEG

4H458-AA = biological target: T50, 4H458-AA; details: mean of both orientations
T50 chain: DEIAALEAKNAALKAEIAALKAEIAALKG

4H485-AA = biological target: T51, 4H485-AA; details: mean of both orientations
T51 chain: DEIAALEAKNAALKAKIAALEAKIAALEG

4H536-AA = biological target: T52, 4H536-AA; details: mean of both orientations
T52 chain: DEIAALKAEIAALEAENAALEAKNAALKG

4H570-AA = biological target: T53, 4H570-AA; details: mean of both orientations
T53 chain: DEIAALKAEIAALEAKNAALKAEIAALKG

4H629-AA = biological target: T54, 4H629-AA; details: mean of both orientations
T54 chain: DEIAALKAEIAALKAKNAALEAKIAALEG

4H710-AA = biological target: T55, 4H710-AA; details: mean of both orientations
T55 chain: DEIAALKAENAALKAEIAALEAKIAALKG

4H745-AA = biological target: T56, 4H745-AA; details: mean of both orientations
T56 chain: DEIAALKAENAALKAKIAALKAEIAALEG

4H797-AA = biological target: T57, 4H797-AA; details: mean of both orientations
T57 chain: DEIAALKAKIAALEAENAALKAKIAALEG

4H850-AA = biological target: T58, 4H850-AA; details: mean of both orientations
T58 chain: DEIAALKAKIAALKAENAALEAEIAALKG

4H891-AA = biological target: T59, 4H891-AA; details: mean of both orientations
T59 chain: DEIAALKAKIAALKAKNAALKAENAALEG

4H909-AA = biological target: T60, 4H909-AA; details: mean of both orientations
T60 chain: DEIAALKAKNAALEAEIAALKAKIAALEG

4H930-AA = biological target: T61, 4H930-AA
T61 chain: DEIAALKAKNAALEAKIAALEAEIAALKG

4H94-AA = biological target: T62, 4H94-AA; details: mean of both orientations
T62 chain: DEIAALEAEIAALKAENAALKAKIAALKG

Chain of 4H_GCN4 (chain, as listed by the source): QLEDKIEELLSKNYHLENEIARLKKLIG

## DKIAALKAEIAALEAKIAALEAKNAALKG [4H2600-AA]
4H2600-AA
  interaction score: 1.58
4H2721-AA
  interaction score: -0.793
4H2750-AA
  interaction score: -1.65
4H2898-AA
  interaction score: 0.0245
4H3020-AA
  interaction score: -0.911
4H3365-AA
  interaction score: -0.236
4H355-AA
  interaction score: 2.12
4H3651-AA
  interaction score: 0.646
4H3705-AA
  interaction score: 0.21
4H3782-AA
  interaction score: -1.12
4H465-AA
  interaction score: -1.72
4H486-AA
  interaction score: 0.497
4H535-AA
  interaction score: -0.657
4H58-AA
  interaction score: 0.179
4H895-AA
  interaction score: -0.393
4H_APH
  interaction score: -1.47
4H_BCR
  interaction score: -1.4
4H_GCN4
  interaction score: -1.63
GCN2_T
  interaction score: -1.38

## DENAALKAEIAALEAKNAALKAKIAALEG [4H1597-AA]
4H1597-AA
  interaction score: 0.478
4H1626-AA
  interaction score: -1.36
4H171-AA
  interaction score: -0.742
4H174-AA
  interaction score: -0.236
4H1842-AA
  interaction score: -0.303
4H1864-AA
  interaction score: 0.43
4H1877-AA
  interaction score: 2.43
4H2109-AA
  interaction score: -1.06
4H2162-AA
  interaction score: -1.31
4H2253-AA
  interaction score: -1.29
4H2274-AA
  interaction score: -1.74
4H2330-AA
  interaction score: -1.59
4H2389-AA
  interaction score: 2.15
4H2438-AA
  interaction score: -0.641
4H2473-AA
  interaction score: -1.3
4H2649-AA
  interaction score: -0.826
4H2698-AA
  interaction score: -0.556
4H2725-AA
  interaction score: 0.827
4H2865-AA
  interaction score: 0.229
4H3009-AA
  interaction score: -1.02
4H3016-AA
  interaction score: -1.4
4H310-AA
  interaction score: -0.161
4H3120-AA
  interaction score: -1.49
4H3130-AA
  interaction score: -1.55
4H3165-AA
  interaction score: -0.486
4H3381-AA
  interaction score: -0.659
4H3395-AA
  interaction score: -1.14
4H3410-AA
  interaction score: 2
4H3590-AA
  interaction score: 0.533
4H3697-AA
  interaction score: 0.353
4H3753-AA
  interaction score: -0.89
4H3865-AA
  interaction score: 0.833
4H458-AA
  interaction score: -1.71
4H485-AA
  interaction score: -1.53
4H536-AA
  interaction score: -0.234
4H570-AA
  interaction score: -1.39
4H629-AA
  interaction score: 0.0113
4H710-AA
  interaction score: -1.99
4H745-AA
  interaction score: -1.15
4H797-AA
  interaction score: 0.0984
4H850-AA
  interaction score: 1.96
4H891-AA
  interaction score: -1.56
4H909-AA
  interaction score: -1.1
4H930-AA
  interaction score: -1.69
4H94-AA
  interaction score: -0.751
